Experimental data: US20240132485A1, “HETEROCYCLIC CULLIN RING UBIQUITIN LIGASE COMPOUNDS AND USES THEREOF” (CEMM - FORSCHUNGSZENTRUM FÜR MOLEKULARE MEDIZIN GMBH, priority 2020, published 2024)

Experiments:
[1] = biological target: Nanoluc_DDB1 (N-terminal Nanoluc luciferase, G4S linker, DDB1 (FL)) (UniProt Q16531); test: NanoBRET in HEK293T cells, 10 µM compound Example 3-39; class B = 3-4 fold increase
[2] = biological target: Nanoluc_DDB1 (N-terminal Nanoluc luciferase, G4S linker, DDB1 (FL)) (UniProt Q16531); test: NanoBRET in HEK293T cells, 10 µM compound Example 3-19; class A = greater than 4-fold increase
[3] = biological target: Nanoluc_DDB1 (N-terminal Nanoluc luciferase, G4S linker, DDB1 (FL)) (UniProt Q16531); test: NanoBRET in HEK293T cells, 10 µM compound Example 3-54; class C = 2-3 fold increase
[4] = biological target: Nanoluc_DDB1 (N-terminal Nanoluc luciferase, G4S linker, DDB1 (FL)) (UniProt Q16531); test: NanoBRET in HEK293T cells, 10-point titration of compound Example 3-50; class A = EC50<=0.25 µM
[5] = biological target: Nanoluc_DDB1 (N-terminal Nanoluc luciferase, G4S linker, DDB1 (FL)) (UniProt Q16531); test: NanoBRET in HEK293T cells, 10 µM compound Example 3-42; class A = greater than 4-fold increase

Nanoluc_DDB1 (N-terminal Nanoluc luciferase, G4S linker, DDB1 (FL)), sequence (Q16531 other isoform, or with tags, fused parts or gaps): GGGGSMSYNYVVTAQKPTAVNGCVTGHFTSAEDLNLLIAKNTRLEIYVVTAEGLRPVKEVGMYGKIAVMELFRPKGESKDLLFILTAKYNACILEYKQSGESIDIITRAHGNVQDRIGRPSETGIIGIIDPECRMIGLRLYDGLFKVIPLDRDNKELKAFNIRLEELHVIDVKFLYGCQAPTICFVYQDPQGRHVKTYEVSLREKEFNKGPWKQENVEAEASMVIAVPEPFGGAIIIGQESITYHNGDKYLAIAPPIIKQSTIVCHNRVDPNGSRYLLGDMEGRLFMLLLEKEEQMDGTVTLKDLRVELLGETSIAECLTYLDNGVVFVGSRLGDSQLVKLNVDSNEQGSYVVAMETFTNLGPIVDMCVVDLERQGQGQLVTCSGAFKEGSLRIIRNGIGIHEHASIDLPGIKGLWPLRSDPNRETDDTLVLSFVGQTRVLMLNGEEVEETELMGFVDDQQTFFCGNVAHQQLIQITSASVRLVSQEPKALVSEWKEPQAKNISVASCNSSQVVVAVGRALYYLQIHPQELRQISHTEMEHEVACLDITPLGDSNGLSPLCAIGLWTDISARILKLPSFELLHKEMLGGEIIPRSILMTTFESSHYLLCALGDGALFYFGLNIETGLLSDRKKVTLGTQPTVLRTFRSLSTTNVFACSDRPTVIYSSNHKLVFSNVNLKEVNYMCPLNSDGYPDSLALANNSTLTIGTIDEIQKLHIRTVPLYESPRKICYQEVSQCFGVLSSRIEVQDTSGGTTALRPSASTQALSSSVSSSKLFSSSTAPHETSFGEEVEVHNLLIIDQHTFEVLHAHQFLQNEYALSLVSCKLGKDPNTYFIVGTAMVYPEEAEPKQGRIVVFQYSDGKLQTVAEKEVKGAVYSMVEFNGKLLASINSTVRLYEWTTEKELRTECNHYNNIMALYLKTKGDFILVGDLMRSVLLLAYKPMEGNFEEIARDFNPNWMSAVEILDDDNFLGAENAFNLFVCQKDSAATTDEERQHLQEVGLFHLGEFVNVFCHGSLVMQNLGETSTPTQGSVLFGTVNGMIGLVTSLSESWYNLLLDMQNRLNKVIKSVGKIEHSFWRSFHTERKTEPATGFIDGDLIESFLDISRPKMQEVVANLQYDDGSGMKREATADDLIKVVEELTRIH

For “HaloTag_CDK12 (N-terminal HaloTag, G4S linker, CDK12 (713-1052)) (from UniProt Q9NYV4 713-1052) (enzyme)”, the NanoBRET fold increase [1] was 3 to 4 fold, the NanoBRET fold increase [2] was over 4 fold and the NanoBRET fold increase [3] was 2 to 3 fold. It also gave an EC50 [4] of under 250 nM and a NanoBRET fold increase [5] of over 4 fold.
